The text below walks through data of PMC9881131, “ZNF212 promotes genomic integrity through direct interaction with TRAIP” (Nucleic Acids Research, 2023).

This test concerns the target T1, recombinant HA-NEIL3 (human, UniProt Q8TAT5 1-605).
T1 construct: NEIL3, human (hNEIL3), subcloned into a pET19b-derived plasmid; The methods tell 3x FLAG (N-terminus) and 10x His (C-terminus); the results call the purified protein HA-NEIL3; Which tags stood on the protein in the assay is not clear; also called hNEIL3; source: E. coli BL21 (DE3), purified (Ni-NTA, Q column, gel filtration)
T1 sequence (looked up): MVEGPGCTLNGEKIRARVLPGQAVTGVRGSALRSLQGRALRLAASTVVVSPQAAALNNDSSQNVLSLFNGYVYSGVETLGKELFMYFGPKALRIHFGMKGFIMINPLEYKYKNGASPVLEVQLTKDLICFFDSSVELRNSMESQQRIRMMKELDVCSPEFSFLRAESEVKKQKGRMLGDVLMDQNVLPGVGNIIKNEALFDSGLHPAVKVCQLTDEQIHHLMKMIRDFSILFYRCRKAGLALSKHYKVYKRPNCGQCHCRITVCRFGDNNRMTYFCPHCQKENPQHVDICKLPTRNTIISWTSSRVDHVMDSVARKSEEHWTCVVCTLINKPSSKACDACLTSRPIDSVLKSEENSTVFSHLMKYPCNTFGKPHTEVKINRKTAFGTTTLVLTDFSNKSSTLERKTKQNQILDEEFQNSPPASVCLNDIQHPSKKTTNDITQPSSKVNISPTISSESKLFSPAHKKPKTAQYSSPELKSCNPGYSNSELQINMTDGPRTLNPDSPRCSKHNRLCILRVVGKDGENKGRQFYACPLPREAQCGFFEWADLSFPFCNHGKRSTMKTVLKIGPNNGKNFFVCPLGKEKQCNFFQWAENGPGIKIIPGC
In words: co-IP; purified recombinant Flag-ZNF212 (or ZNF212-C) and HA-NEIL3; immunoprecipitation with increasing amounts of HA-NEIL3. As to conditions: both partners purified.

B1: recombinant Flag-ZNF212 (natural protein)
chain: not shown
notes: ZNF212, human, 3X-Flag tagged coding region cloned in pCold TF DNA; The host strain (E. coli BL21 (DE3)) is stated for hNEIL3 only; the later purification steps are told for hNEIL3 only; also called hZNF212; source: pCold TF DNA vector, cells grown in LB broth at 15°C, purified (Ni-NTA)
With B1, the binding result is on record as “binds”.
